In patent publication US6897294:

Molecular target: flt(1,2,3): flt-1 Ig-like domains 1, 2 and 3 only fused to the Fc of IgG (human) [IgG part: P01857]
Assay: unlabeled VEGF titrated against 125I-VEGF165 binding to 1 ng immunoreactive flt(1, 2, 3) on anti-Fc plates; 4-parameter fit (FIG. 5)

Sequence of vascular endothelial growth factor VEGF165 (P15692 other isoform, or with tags, fused parts or gaps limits assumed): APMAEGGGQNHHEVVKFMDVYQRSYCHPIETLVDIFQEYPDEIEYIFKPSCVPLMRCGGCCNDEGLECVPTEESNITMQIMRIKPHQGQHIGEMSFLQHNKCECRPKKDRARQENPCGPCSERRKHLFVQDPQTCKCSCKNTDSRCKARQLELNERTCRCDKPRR

An IC50 of 1.34 ng/mL was found for “vascular endothelial growth factor VEGF165 (from UniProt P15692 27-191) (ligand)” in this work.
